Patent EP4039818A1

Target: a-sACE2 (enzymatically active soluble ACE2) as measured in Example 7b (UniProt Q9BYF1)
Assay: cell-based or functional assay

enzymatic activity measurement performed according to the enzymatic activity assay of example 3a: > 5 µg/mL
Substance: goat polyclonal anti-human ACE2 antibody (R&D Systems, #AF933)
